Test results as given in US20120129766A1 (IRM, published 2012).

T1: human β-klotho (human, UniProt Q86Z14 1-1044)
T1 sequence (looked up): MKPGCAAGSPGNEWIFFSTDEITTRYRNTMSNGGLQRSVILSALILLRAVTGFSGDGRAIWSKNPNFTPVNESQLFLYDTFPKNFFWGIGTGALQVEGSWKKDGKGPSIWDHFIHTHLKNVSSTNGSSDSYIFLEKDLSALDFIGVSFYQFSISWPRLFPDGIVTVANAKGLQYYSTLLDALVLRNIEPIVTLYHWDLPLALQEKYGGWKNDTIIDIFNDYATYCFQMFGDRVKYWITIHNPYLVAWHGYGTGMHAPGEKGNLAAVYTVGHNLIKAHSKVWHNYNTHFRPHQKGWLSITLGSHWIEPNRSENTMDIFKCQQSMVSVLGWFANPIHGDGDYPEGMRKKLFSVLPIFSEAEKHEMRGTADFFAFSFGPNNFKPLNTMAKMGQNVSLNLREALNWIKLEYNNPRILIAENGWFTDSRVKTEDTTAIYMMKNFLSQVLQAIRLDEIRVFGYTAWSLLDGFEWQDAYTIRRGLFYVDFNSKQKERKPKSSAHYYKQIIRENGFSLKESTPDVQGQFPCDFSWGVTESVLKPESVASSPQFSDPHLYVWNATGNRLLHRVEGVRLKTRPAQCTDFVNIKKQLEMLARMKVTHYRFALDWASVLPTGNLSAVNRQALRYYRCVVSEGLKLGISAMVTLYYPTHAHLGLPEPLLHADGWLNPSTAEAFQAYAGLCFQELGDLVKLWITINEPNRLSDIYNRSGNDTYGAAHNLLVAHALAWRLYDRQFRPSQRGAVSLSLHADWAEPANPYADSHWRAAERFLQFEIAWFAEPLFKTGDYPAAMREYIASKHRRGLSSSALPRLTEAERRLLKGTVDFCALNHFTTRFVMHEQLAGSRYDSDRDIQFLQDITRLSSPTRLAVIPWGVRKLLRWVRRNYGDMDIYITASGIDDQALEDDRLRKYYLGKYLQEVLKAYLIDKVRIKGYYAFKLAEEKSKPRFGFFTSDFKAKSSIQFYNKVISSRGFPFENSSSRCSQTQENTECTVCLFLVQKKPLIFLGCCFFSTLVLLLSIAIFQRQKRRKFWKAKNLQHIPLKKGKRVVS


These binders were tested against T1, human β-klotho (assay: cell-based or functional assay).

Row | EC50 (nM), pERK In Cell Western [nM] | Fold-WT (EC50 of variant / EC50 of FGF21-WT) [fold] | Binder
1 | 3.6 | 2.6 | hFGF21(33-209)-V58 (ligand) DSSPLLQFGGQVRQRYLYTDDAQQTEAHLEIREDGTVGGAAHQSPESLLQLKALKPGVIQILGVKTSRFLCQRPDGTLYGSLHFDPEACSFRELLLENGYNVYQSETHGLPLHLPGNRSPHRDPASQGPARFLPLPGLPPAPPEPPGILAPQPPDVGSSDPLAMVGPSQARSPSYAS
2 | 3.4 | 0.47 | hFGF21(33-209)-V76 (ligand) DSSPLLQFGGQVRQRYLYTDDAQETEAHLEIREDGTVGGAAHQSPESLLELKALKPGVIQILGVKTSRFLCQKPDGALYGSLHFDPEACSFRELLLEDGYNVYQSEAHGLPLHLPGNRSPHCDPAPQGPARFLPLPGLPPALPEPPGILAPQPPDVGSSDPLAMVGPSQGRSPSYAS
3 | 7.6 | 2.2 | hFGF21(33-209)-V60 (ligand) DSSPLLQFGGQVRQRYLYTDDACQTEAHLEIREDGTVGGAAHQSPESLLELKALKPGVIQILGVKTSRFLCQRPDGTLYGSLHFDPEACSFRELLLENGYNVYQSEAHGLPLHLPCNRSPHRDPASRGPARFLPLPGLPPAPPEPPGILAPQPPDVGSSDPLAMVGPSQGRSPSYAS
4 | 13 | 3.7 | hFGF21(33-209)-V63 (ligand) DSSPLLQFGGQVRQRYLYTDDACQTEAHLEIREDGTVGGAAHQSPESLLQLKALKPGVIQILGVKTSRFLCQRPDGALYGSLHFDPEACSFRELLLENGYNVYQSETHGLPLHLPCNRSPHRDPASRGPARFLPLPGLPPAPPEPPGILAPQPPDVGSSDPLAMVGPSQARSPSYAS
5 | 6.5 | 1.6 | hFGF21(33-209)-V59 (ligand) DSSPLLQFGGQVRQRYLYTDDACQTEAHLEIREDGTVGGAAHQSPESLLELKALKPGVIQILGVKTSRFLCQRPDGALYGSLHFDPEACSFRELLLENGYNVYQSEAHGLPLHLPCNRSPHRDPASQGPARFLPLPGLPPAPPEPPGILAPQPPDVGSSDPLAMVGPSQGRSPSYAS
6 | 191 | 66 | hFGF21(33-209)-V73-N-40 kDa bPEG-AL (ligand, 40 kDa branched PEG (aldehyde reagent) on the N-terminal amine) DSSPLLQFGGQVRQRYLYTDDAQETEAHLEIREDGTVGGAAHQSPESLLELKALKPGVIQILGVKTSRFLCQKPDGALYGSLHFDPEACSFRELLLEEGYNVYQSEAHGLPLHLPGNRSPHRDPAPQGPARFLPLPGLPPALPEPPGILAPQPPDVGSSDPLAMVGPSQGRSPSYAS
7 | 13 | 2.4 | hFGF21(33-209)-V9 (ligand) DSSPLLQFGGQVRQRYLYTDDDQQTEAHLEIREDGTVGGAAHQSPESLLQLKALKPGVIQILGVKASRFLCQKPDGALYGSLHFDPEACSFRELLLENGYNVYQSETHGLPLHLPGNKSPHRDPASQGPARFLPLPGLPPALPEPPGILAPQPPDVGSSDPLAMVGPSQARSPSYAS
8 | 1.5 | 2.7 | hFGF21(33-209)-V82 (ligand) DSSPLLQFGGQVRQRYLYTDDAQQTEAHLEIREDGTVGGAADQSPESLLELKALKPGVIQILGVKTSRFLCQKPDGTLYGSLHFDPEACSFRELLLEDGYNVYQSEAHGLPLHLPGNRSPHCDPASQGPARFLPLPGLPPALPEPPGILAPQPPDVGSSDPLAMVGPSQGRSPSYAS
9 | 2 | 0.3 | hFGF21(33-209)-V85 (ligand) DSSPLLQFGGQVRQRYLYTDDAQQTEAHLEIREDGTVGGAAHQSPESLLELKALKPGVIQILGVKTSRFLCQKPDGALYGSLHFDPEACSFRELLLEEGYNVYQSEAHGLPLHLPGNRSPHCDPAPQGPARFLPLPGLPPALPEPPGILAPQPPDVGSSDPLAMVGPSQGRSPSYAS
10 | 2.2 | 0.4 | hFGF21(33-209)-V79 (ligand) DSSPLLQFGGQVRQRYLYTDDAQQTEAHLEIREDGTVGGAAHQSPESLLELKALKPGVIQILGVKTSRFLCQKPDGALYGSLHFDPEACSFRELLLEDGYNVYQSEAHGLPLHLPGNRSPHCDPAPQGPARFLPLPGLPPALPEPPGILAPQPPDVGSSDPLAMVGPSQARSPSYAS
11 | 2.2 | 0.4 | hFGF21(33-209)-V80 (ligand) DSSPLLQFGGQVRQRYLYTDDAQQTEAHLEIREDGTVGGAADQSPESLLELKALKPGVIQILGVKTSRFLCQKPDGTLYGSLHFDPEACSFRELLLEDGYNVYQSEAHGLPLHLPGNRSPHCDPAPQGPARFLPLPGLPPALPEPPGILAPQPPDVGSSDPLAMVGPSQARSPSYAS
12 | 11 | 2.1 | hFGF21(33-209)-V81 (ligand) DSSPLLQFGGQVRQRYLYTDDAQQTEAHLEIREDGTVGGAAHQSPESLLELKALKPGVIQILGVKTSRFLCQKPDGALYGSLHFDPEACSFRELLLEDGYNVYQSEAHGLPLHLPGNRSPHCDPASQGPARFLPLPGLPPALPEPPGILAPQPPDVGSSDPLAMVGPSQGRSPSYAS
13 | 22 | 6.3 | hFGF21(33-209)-V61 (ligand) DSSPLLQFGGQVRQRYLYTDDACQTEAHLEIREDGTAGGAAHQSPESLLELKALKPGVIQILGVKTSRFLCQRPDGALYGSLHFDPEACSFRELLLENGYNVYQSEAHGLPLHLPCNRSPHRDPASRGPARFLPLPGLPPAPPEPPGILAPQPPDVGSSDPLAMVGPSQGRSPSYAS
14 | 8.3 | 2.4 | hFGF21(33-209)-V76-154C-40 kDa-bPEG-MA (ligand, 40 kDa branched maleimido-PEG on Cys 154 (numbered on SEQ ID NO:1)) DSSPLLQFGGQVRQRYLYTDDAQETEAHLEIREDGTVGGAAHQSPESLLELKALKPGVIQILGVKTSRFLCQKPDGALYGSLHFDPEACSFRELLLEDGYNVYQSEAHGLPLHLPGNRSPHCDPAPQGPARFLPLPGLPPALPEPPGILAPQPPDVGSSDPLAMVGPSQGRSPSYAS
15 | 24 | 6.8 | hFGF21(33-209)-V62 (ligand) DSSPLLQFGGQVRQRYLYTDDACQTEAHLEIREDGTVGGAAHQSPESLLQLKALKPGVIQILGVKTSRFLCQRPDGALYGSLHFDPEACSFRELLLENGYNVYQSETHGLPLHLPCNKSPHRDPASQGPARFLPLPGLPPAPPEPPGILAPQPPDVGSSDPLAMVGPSQARSPSYAS
16 | 0.21 | 0.38 | hFGF21(33-209)-V83 (ligand) DSSPLLQFGGQVRQRYLYTDDAQQTEAHLEIREDGTVGGAADQSPESLLELKALKPGVIQILGVKTSRFLCQKPDGTLYGSLHFDPEACSFRELLLEDGYNVYQSEAHGLPLHLPGNRSPHCDPASRGPARFLPLPGLPPALPEPPGILAPQPPDVGSSDPLAMVGPSQARSPSYAS
17 | 4.5 | 1.1 | hFGF21(33-209)-V84 (ligand) DSSPLLQFGGQVRQRYLYTDDAQQTEAHLEIREDGTVGGAADQSPESLLELKALKPGVIQILGVKTSRFLCQRPDGTLYGSLHFDPEACSFRELLLEDGYNVYQSETHGLPLHLPGNRSPHCDPASRGPARFLPLPGLPPALPEPPGILAPQPPDVGSSDPLAMVGPSQARSPSYAS
18 | 5.8 | 1.7 | hFGF21(33-209)-V73 (ligand) DSSPLLQFGGQVRQRYLYTDDAQETEAHLEIREDGTVGGAAHQSPESLLELKALKPGVIQILGVKTSRFLCQKPDGALYGSLHFDPEACSFRELLLEEGYNVYQSEAHGLPLHLPGNRSPHRDPAPQGPARFLPLPGLPPALPEPPGILAPQPPDVGSSDPLAMVGPSQGRSPSYAS
19 | 14 | 5 | hFGF21(33-209)-V8 (ligand) DSSPLLQFGGQVRQRYLYTDDAQETEAHLEIREDGTVGGAAHQSPESLLQLKALKPGVIQILGVQTSRFLCQKPDGALYGSLHFDPEACSFRELLLENGYNVYQSETHGLPLHLPGNKSPHRDPASQGPARFLPLPGLPPALPEPPGILAPQPPDVGSSDPLAMVGPSQARSPSYAS
20 | 2.9 | 0.8 | hFGF21(33-209)-V64 (ligand) DSSPLLQFGGQVRQRYLYTDDACQTEAHLEIREDGTVGGAADQSPESLLQLKALKPGVIQILGVKTSRFLCQRPDGTLYGSLHFDPEACSFRELLLENGYNVYQSETHGLPLHLPCNRSPHRDPASRGPARFLPLPGLPPAPPEPPGILAPQPPDVGSSDPLAMVGPSQARSPSYAS
